The target in this assay is Nucleosome: Xenopus laevis histone octamer with Cy3-labeled H2A T120C on Widom 601 DNA (Xenopus laevis). As to the kind of experiment: single-molecule fluorescence co-localisation with photobleaching step counting.

Turning to “Alexa647-labeled Chd1p (from UniProt P32657 1-1468) (enzyme)”, the fraction of nucleosomes with one Chd1p amounted to 47.8%, the fraction of nucleosomes with three Chd1ps worked out at 21.7% and the fraction of nucleosomes with two Chd1ps is 30.4%.

(Values after doi:10.1101/376806.)
